Data: US20040005688A1 (University of California, published 2004)

Biological target: T1, GST-fusion protein containing the PDZ domain of Dsh (Drosophila, UniProt P51140 250-338)
T1 construct: One of the smaller segments of the DM region made as GST fusions; not shown: glutathione S-transferase (GST) from a GST expression vector
T1 chain: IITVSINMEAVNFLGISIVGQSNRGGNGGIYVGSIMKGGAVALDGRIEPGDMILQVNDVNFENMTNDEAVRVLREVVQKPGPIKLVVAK
Assay: GST pull-down with segments of the DM region; in vitro kinase assay
Description: Lysates in buffer A with PIC were incubated with anti-Dsh or anti-DAK antibodies for 2-4 hours at 4° C. The immune complexes were collected by incubation with protein-A beads for 2 hours at 4° C., followed by centrifugation. The immunoprecipitates were then washed three times for 5-10 minutes each with Buffer A and subjected to SDS-PAGE or in vitro kinase assay. For precipitation by GST fusion proteins containing various regions of Dsh, lysates in buffer A with PIC were incubated for 2-4 hours at 4° C. with fusion proteins immobilized on glutathione agarose beads, followed by brief centrifugation. The glutathione beads were then washed three time for 5-10 minutes each with Buffer A and subjected to in vitro kinase assay, as described below.
The DAK activity was determined by a solid phase in vitro kinase assay after being brought down by immunoprecipitation (IP) or GST precipitation. The washed protein A or glutathione beads were then washed once with kinase buffer (50 mM Tris (pH 7.6), 10 mM MgCl₂) for 5 minutes at 4° C. The kinase reactions were carried out at room temperature for 30 minutes in a reaction volume of 20 μl containing 5:1 washed IP or GST beads, 1 μl [γ-³²P] ATP (10 μCi at 5000 Ci/mmol, Amersham) and 14 μl kinase buffer. […] The membranes were exposed to X-ray films or quantitated as indicated. […]

binding result: no binding
B1: Dishevelled Associated Kinase (DAK), endogenous kinase activity from Drosophila embryo and Clone-8 cell lysates (enzyme)
chain: MSTAMRTTLQSVPEALPADSVSNGTASNVAAPAAPVSSATNAVPPLAAVSSTTATYATNSISTSSHSVKDQQQQQQQQQHDSANANIVSLPPTTTPVANTNTMMPIVTSSNSATSNSTAATPTPASGAAATGGVGSVSQGPATVSASAANTNHSHQHSHQHHHHVANNMTTDGARLSSNNSAVVASSAINHHHHHTPGSGVAPTVNKNVLSTHSAHPSAIKQRTSSAKGSPNMQMRSSAPMRWRATEEHIGKYKLIKTIGKGNFAKVKLAKHLPTGKEVAIKIIDKTQLNPGSLQKLFREVRIMKMLDHPNIVKLFQVIETEKTLYLIMEYASGGEVFDYLVLHGRMKEKEARVKFRQIVSAVQYCHQKRIIHRDLKAENLLLDSELNIKIADFGFSNEFTPGSKLDTFCGSPPYAAPELFQGKKYDGPEVDVWSLGVILYTLVSGSLPFDGSTLRELRERVLRGKYRIPFYMSTDCENLLRKFLVLNPAKRASLETIMGDKWMNMGFEEDELKPYIEPKADLADPKRIEALVAMGYNRSEIEASLSQVRYDDVFATYLLLGRKSTDPESDGSRSGSSLSLRNISGNDAGANAGSASVQSPTHRGVHRSISASSTKPSRRASSGAETLRVGPTNAAATVAAATGAVGAVNPSNNYNAAGSAADRASVGSNFKRQNTIDSATIKENTARLAAQNQRPASATQKMLTTADTTLNSPAKPRTATKYDPTNGNRTVSGTSGIIPRRSTTLYEKTSSTEKTNVIPAETKMASAVKSSRHFPRNVPSRSTFHSGQTRARNNTALEYSGTSGASGDSSHPGRMSFFSKLSSRFSKRPNQ
notes: Native activity from lysates, not a defined construct; also called Dishevelled associated kinase activity; Dsh associated kinase activity
